Here are results for 94 variants from the supplement of paper PMC10567573.

The labels stand for the following.
B1: BTBD10 (parent)
chain: FVYENAKEGARNIRTSERVTLIVD
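Note: lentivirally expressed fusions sorted by FACS into six bins by GFP to DsRed ratio, PSI derived from sequencing read proportions per bin multiplied by bin number.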

Variants of B1 are the subject of this data set. Put plainly: protein stability index of a GFP-peptide fusion (GPS, HEK-293T) (PSI 1-6); higher = more stable. Particulars: c terminus: a fixed tail appended.
FVYENAKEGARNQRTSERVTLIVD [I13Q]: the protein stability index stood at 2.38. In the case of FVYENAKEGARNLRTSERVTLIVD [I13L], the protein stability index is 2.5.

Consider FVYENAKEGARNTRTSERVTLIVD [I13T], for which the protein stability index came to 2.4. To FVYENAKEGARNPRTSERVTLIVD [I13P] belongs 2.21. The same measure for FVYENAKEGARNIRTSERVTTIVD [L21T]: 2.07; for FVYENAKEGARNIRTSERVTFIVD [L21F]: 1.88; for WVYENAKEGARNIRTSERVTLIVD [F1W]: 2.55.

With IVYENAKEGARNIRTSERVTLIVD [F1I], the protein stability index was found to be 2.71.

In the case of CVYENAKEGARNIRTSERVTLIVD [F1C], the protein stability index is 2.5.

As to RVYENAKEGARNIRTSERVTLIVD [F1R], the protein stability index is 3.3. To FVYENAKEGARNIRTSERLTLIVD [V19L] belongs 2; to FVYENAKEGARNIRTSERKTLIVD [V19K], 1.91; to FVYENAKEGARNIRTSERNTLIVD [V19N], 2.43. To FVYENAKEGARNIRTSERMTLIVD [V19M] belongs 1.62. To FVYENAKEGARNIRQSERVTLIVD [T15Q] belongs 2.68; to FVYENAKEGARNIRDSERVTLIVD [T15D], 2.37; to FVYENAKEGARNIHTSERVTLIVD [R14H], 1.99. On to FVYENAKEGARNIITSERVTLIVD [R14I], for which the protein stability index worked out at 2.02. To FVYENAKEGARNIATSERVTLIVD [R14A] belongs 2.17; to FVYENAKEGARNIVTSERVTLIVD [R14V], 2.05. The same measure for FVYENAKEGARNIKTSERVTLIVD [R14K]: 1.68. Take FVYENAKEGARNIWTSERVTLIVD [R14W]: the protein stability index worked out at 2.87.

Take FVYENAKMGARNIRTSERVTLIVD [E8M]: the protein stability index was determined as 2.11. The same measure for FVYENAKHGARNIRTSERVTLIVD [E8H]: 2.25; for FVYENAKFGARNIRTSERVTLIVD [E8F]: 1.86. On to FVYENAKKGARNIRTSERVTLIVD [E8K], for which the protein stability index was 1.93. To FVYENAKSGARNIRTSERVTLIVD [E8S] belongs 1.72; to FHYENAKEGARNIRTSERVTLIVD [V2H], 3.07; to FTYENAKEGARNIRTSERVTLIVD [V2T], 3.08. To FQYENAKEGARNIRTSERVTLIVD [V2Q] belongs 3.07; to FVYENAKEGARNIRTSETVTLIVD [R18T], 1.98; to FVYENAKEGARNIRTSESVTLIVD [R18S], 1.89.

Turning to FVYENAKEGLRNIRTSERVTLIVD [A10L], the protein stability index is 1.89.

With FVYENAKEGCRNIRTSERVTLIVD [A10C], the protein stability index is 1.84.

As for FVYENAKEGDRNIRTSERVTLIVD [A10D], the protein stability index is 2.26.

On to FVYENAKEGMRNIRTSERVTLIVD [A10M], for which the protein stability index is 1.62. Take FVYENAKEGFRNIRTSERVTLIVD [A10F]: the protein stability index is 2.18.

As for FVYENAKEGNRNIRTSERVTLIVD [A10N], the protein stability index turned out to be 2.16. The same measure for FVYEVAKEGARNIRTSERVTLIVD [N5V]: 1.63; for FVYENYKEGARNIRTSERVTLIVD [A6Y]: 1.57; for FVYENNKEGARNIRTSERVTLIVD [A6N]: 2.43. To FVYENIKEGARNIRTSERVTLIVD [A6I] belongs 1.79. To FVYENCKEGARNIRTSERVTLIVD [A6C] belongs 1.82; to FVYENHKEGARNIRTSERVTLIVD [A6H], 2.1; to FVYENEKEGARNIRTSERVTLIVD [A6E], 2.8. For the variant FVLENAKEGARNIRTSERVTLIVD [Y3L], the protein stability index is 1.92.

Regarding FVIENAKEGARNIRTSERVTLIVD [Y3I], the protein stability index amounted to 2.26. To FVVENAKEGARNIRTSERVTLIVD [Y3V] belongs 2.22; to FVHENAKEGARNIRTSERVTLIVD [Y3H], 2.11; to FVYENAKEGARNIRTSERVTLHVD [I22H], 2.2.

Regarding FVYENAKEGARNIRTSERVTLMVD [I22M], the protein stability index was found to be 2.77. Consider FVYENAKEGARNIRTSERVTLSVD [I22S], for which the protein stability index was found to be 2.67. The same measure for FVYENAKEGARNIRTSERVTLWVD [I22W]: 3.09; for FVYENAKEGARNIRTSERVTLAVD [I22A]: 1.76; for FVYENAKEGARNIRTSERVSLIVD [T20S]: 2.27. Regarding FVYENAKEGARNIRTSERVVLIVD [T20V], the protein stability index stood at 1.38. The same measure for FVYENAKEGARNIRTSERVELIVD [T20E]: 2.06; for FVYENAKEGARNIRTSERVQLIVD [T20Q]: 2.18. To FVYENAKEGARNIRTSERVALIVD [T20A] belongs 1.73; to FVYENAWEGARNIRTSERVTLIVD [K7W], 1.63. As for FVYENAREGARNIRTSERVTLIVD [K7R], the protein stability index came to 1.86.

For the variant FVYENAIEGARNIRTSERVTLIVD [K7I], the protein stability index was 2.5. To FVYENAVEGARNIRTSERVTLIVD [K7V] belongs 1.93. For the variant FVYRNAKEGARNIRTSERVTLIVD [E4R], the protein stability index was found to be 1.91.

For the variant FVYNNAKEGARNIRTSERVTLIVD [E4N], the protein stability index worked out at 1.57. The same measure for FVYLNAKEGARNIRTSERVTLIVD [E4L]: 1.48; for FVYGNAKEGARNIRTSERVTLIVD [E4G]: 1.75; for FVYMNAKEGARNIRTSERVTLIVD [E4M]: 1.91.

With FVYENAKEGARNIRTSERVTLIVA [D24A], the protein stability index was found to be 1.49.

FVYENAKEGARNIRTSERVTLIVH [D24H]: the protein stability index was 1.66.

Take FVYENAKEGARNIRTSERVTLIVI [D24I]: the protein stability index was 2.95.

On to FVYENAKEDARNIRTSERVTLIVD [G9D], for which the protein stability index is 2.49. In the case of FVYENAKEEARNIRTSERVTLIVD [G9E], the protein stability index worked out at 2.33. To FVYENAKERARNIRTSERVTLIVD [G9R] belongs 2.17; to FVYENAKEPARNIRTSERVTLIVD [G9P], 2.02. For FVYENAKEGARNIRTPERVTLIVD [S16P], the protein stability index stood at 2.33.

Turning to FVYENAKEGARNIRTGERVTLIVD [S16G], the protein stability index is 2.41. The same measure for FVYENAKEGARNIRTQERVTLIVD [S16Q]: 2.18; for FVYENAKEGARNIRTIERVTLIVD [S16I]: 2.38. The same measure for FVYENAKEGARNIRTVERVTLIVD [S16V]: 1.34. As for FVYENAKEGATNIRTSERVTLIVD [R11T], the protein stability index came out at 2.19. To FVYENAKEGAMNIRTSERVTLIVD [R11M] belongs 1.59; to FVYENAKEGAKNIRTSERVTLIVD [R11K], 1.9; to FVYENAKEGAHNIRTSERVTLIVD [R11H], 2.16.

As to FVYENAKEGAENIRTSERVTLIVD [R11E], the protein stability index came to 3.09.

Consider FVYENAKEGANNIRTSERVTLIVD [R11N], for which the protein stability index was 1.83. To FVYENAKEGARNIRTSERVTLIDD [V23D] belongs 2.39; to FVYENAKEGARNIRTSERVTLIGD [V23G], 2.11. The same measure for FVYENAKEGARNIRTSERVTLILD [V23L]: 2.07. The same measure for FVYENAKEGARHIRTSERVTLIVD [N12H]: 1.5; for FVYENAKEGARNIRTSKRVTLIVD [E17K]: 2.18; for FVYENAKEGARNIRTSRRVTLIVD [E17R]: 1.46. Turning to FVYENAKEGARNIRTSDRVTLIVD [E17D], the protein stability index was determined as 1.74. For the variant FVYENAKEGARNIRTSARVTLIVD [E17A], the protein stability index came out at 2.17.
